The values below come from patent US20130224246A1.

The target of assay [1] is MBP-LEL113-201, maltose-binding protein linked to the CD81 large extracellular loop between residues 113 to 201 (UniProt P60033). Put plainly: EIA: E2661-his on coated MBP-LEL113-201, detected with anti-His.
For assay [2] the target is unchanged. The assay is described as follows: EIA: HCVpp lysate on coated MBP-LEL113-201, detected with H53.

Chain of MBP-LEL113-201, maltose-binding protein linked to the CD81 large extracellular loop between residues 113 to 201 (P60033 113-201 limits assumed): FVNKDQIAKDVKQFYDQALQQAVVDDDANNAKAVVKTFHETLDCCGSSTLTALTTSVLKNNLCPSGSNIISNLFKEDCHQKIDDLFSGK

In assay [1], “E2661-his C452A/C459A (from UniProt P27958 384-661)” yielded a % of WT CD81-LEL binding activity retained of 40% and a decrease in CD81 binding activity of 60%. Consider “E2661-his M+C459A (from UniProt P27958 384-661)”, for which the fold reduction in LEL binding in assay [1] is 16 fold.

Regarding “HCVpp E2 C452A (from UniProt P27958 384-746)”, the CD81-binding function (reduced) in assay [2] was found to be 80%. As for “HCVpp E2 C459A (from UniProt P27958 384-746)”, in assay [2], the CD81-binding function (reduced) worked out at 40%. For the substance “HCVpp E2 C486A (from UniProt P27958 384-746)”, the % of WT LEL-binding activity retained in assay [2] is 80%. In the case of “HCVpp E2 C569A (from UniProt P27958 384-746)”, in assay [2], the reduction in CD81 binding ability is 70%.
